Results: US20240368668A1, “SUBSTRATES AND BIOMARKERS OF ADAMTS7” (The Broad Institute, Inc., priority 2021, published 2024)
Square brackets hold non-standard residues; d marks the D form. Ends that are not written are not given here. pGlu = O=C1CC[C@@H](C(=O)O)N1

Biological target: T1, mouse ADAMTS7 (Mus musculus, UniProt Q68SA9, E373Q)
T1 construct: Full-length mouse Adamts7 1-1857 (Uniprot Q68SA9, WT or E373Q catalytic mutant); expressed in transfected cells; host or cells: Human Coronary Artery Smooth Muscle Cells (HCA-SMC, Lonza), adenovirus 50 MOI
T1 sequence (Q68SA9 221-1657 E373Q): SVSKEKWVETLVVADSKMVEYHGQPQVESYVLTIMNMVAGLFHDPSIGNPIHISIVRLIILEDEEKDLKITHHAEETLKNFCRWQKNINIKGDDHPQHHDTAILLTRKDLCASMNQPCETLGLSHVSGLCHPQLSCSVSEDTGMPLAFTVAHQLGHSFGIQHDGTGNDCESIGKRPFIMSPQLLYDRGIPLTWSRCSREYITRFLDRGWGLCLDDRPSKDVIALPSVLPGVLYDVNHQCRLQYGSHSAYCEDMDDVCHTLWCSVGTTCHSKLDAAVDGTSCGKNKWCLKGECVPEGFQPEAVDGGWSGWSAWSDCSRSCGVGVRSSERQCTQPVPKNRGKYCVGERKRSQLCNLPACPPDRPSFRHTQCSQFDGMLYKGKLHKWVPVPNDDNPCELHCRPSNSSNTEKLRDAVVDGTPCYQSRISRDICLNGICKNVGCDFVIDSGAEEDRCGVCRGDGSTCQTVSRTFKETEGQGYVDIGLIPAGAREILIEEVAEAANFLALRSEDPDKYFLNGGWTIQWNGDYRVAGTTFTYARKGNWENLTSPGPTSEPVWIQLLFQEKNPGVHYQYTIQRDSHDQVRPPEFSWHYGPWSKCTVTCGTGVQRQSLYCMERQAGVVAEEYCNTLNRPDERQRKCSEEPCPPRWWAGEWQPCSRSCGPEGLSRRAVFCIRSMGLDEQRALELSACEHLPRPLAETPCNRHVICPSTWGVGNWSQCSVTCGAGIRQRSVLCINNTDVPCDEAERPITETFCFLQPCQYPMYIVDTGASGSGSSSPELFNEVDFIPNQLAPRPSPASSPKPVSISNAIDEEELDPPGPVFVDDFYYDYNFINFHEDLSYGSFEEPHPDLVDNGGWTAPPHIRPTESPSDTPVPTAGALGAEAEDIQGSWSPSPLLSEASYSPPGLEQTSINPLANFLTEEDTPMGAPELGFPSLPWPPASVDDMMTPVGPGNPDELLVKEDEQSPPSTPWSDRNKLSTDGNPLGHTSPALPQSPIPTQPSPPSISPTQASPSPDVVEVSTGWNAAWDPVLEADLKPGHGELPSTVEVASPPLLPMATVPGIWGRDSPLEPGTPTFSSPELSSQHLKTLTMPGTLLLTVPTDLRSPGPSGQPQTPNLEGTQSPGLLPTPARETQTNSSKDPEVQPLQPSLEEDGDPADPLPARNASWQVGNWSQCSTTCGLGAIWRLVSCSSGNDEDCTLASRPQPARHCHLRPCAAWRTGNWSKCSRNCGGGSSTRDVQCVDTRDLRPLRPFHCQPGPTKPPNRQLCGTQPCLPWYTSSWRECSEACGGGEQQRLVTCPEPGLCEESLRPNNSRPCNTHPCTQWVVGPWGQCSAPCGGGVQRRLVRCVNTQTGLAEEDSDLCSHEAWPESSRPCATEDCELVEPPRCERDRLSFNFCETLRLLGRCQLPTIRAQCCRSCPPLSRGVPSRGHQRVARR
Assay: TMT10 TAILS N-terminomics, SMC1 experiment (Ad-mADAMTS7 WT vs EQ vs Luc, technical replicates, trypsin digest)
Format: cell-based
Details: TAILS neo-N-terminal peptide abundance; log fold change, Ad-mADAMTS7 EQ over Luc
Excerpt: ADAMTS7 Expression, Cell Culture and Preparation of the Secreted Proteins—Full-length mouse Adamts7 1-1857 (Uniprot Q68SA9, WT or E373Q catalytic mutant) with a carboxyl terminal 3xFLAG tag was used to generate custom adenoviruses as previously described. Adeno-CMV-Luciferase (Ad-Luc) from Vector Biolabs was used as a negative control. Human Coronary Artery Smooth Muscle Cells (HCA-SMC) were obtained from Lonza and expanded in Lonza SmGM-2 media in 15 cm tissue culture plates. Twenty-four hours before media collection, near confluent plates were transduced with 50 MOI adenovirus and switched to Lonza Basal SM media with volumes of 20 ml per 15 cm plate. Expression of the Flag tagged ADAMTS7 was confirmed from the media using western blot and detected using the anti-Flag M2-HRP antibody (Sigma, A8592). Collected media was processed by adding protease inhibitors (1 mM EDTA and 1 mM PMSF) and clarified by 500 g×5 min spin at 4 C to pellet cell debris. Cell media supernatants were then passed through a 0.22 um filter and kept chilled. Processed media was then concentrated 50-100× using 3 kDa Centricon Plus-70 filter unit, spun at 3,500 g×60 min at 4 C. Approximately 10% of the processed, concentrated media was set aside for total secretome proteolytic analysis. The remaining 90% of the processed, concentrated media was buffer exchanged into 50 mM HEPES pH 8.0, 150 mM NaCl (2×50 ml) using the 3 kDa Centricon Plus-70 filter unit and concentrated to >2 mg/ml to serve as input for the TAILS experiment. Secretome and TAILS input samples were stored at −80° C.
For the first experiment, referred to as SMC1, 120 ml of media from 6×15 cm dishes was pooled from each condition (Luc, WT, EQ) and processed to produce three separate inputs for the TAILS experiment. Luc, WT and EQ inputs from the SMC1 experiment were each divided into triplicate 400 ug samples to generate technical replicate TAILS data. For the second experiment, referred to as SMC2, media was processed separately in triplicate for each condition (Luc1, Luc2, Luc3, WT1, WT2, WT3, EQ1, EQ2, EQ3) using 60 ml of media from 3×15 cm dishes for each process replicate. Inputs from the SMC2 experiment used process replicates of 300 ug each to generate TAILS data. The third experiment used input from cultured Human umbilical vein endothelial cells (HUVEC) from Lifeline Cell Technology grown in VascuLife Media and transduced in Lifeline Basal EC (+bFGF2 10 ng/ml). The HUVEC experiment used the same strategy as the SMC2 experiment, with 40 ml of media from 2×15 cm dishes for each process replicate and used 200 ug each to generate TAILS data. Inputs for process replicate experiments were restricted to the lowest concentration from the 9 parallel samples for SMC2 or HUVEC.
TMT10 isotopic labeling and negative selection of non-labeled peptides-Sample preparation was performed based on the TAILS protocol from the Overall lab with some modifications. From a single experiment, nine parallel protein samples in 50 mM HEPES pH 8.0, 150 mM NaCl were separately denatured with guanidinium chloride (Sigma, G4505) to reach a final concentration of 2.5M guanidinium chloride and 250 mM HEPES and incubated at 65° C. for 15 min. Reduction was achieved through addition of tris(2-carboxylethyl) phosphine (TCEP) at a final concentration of […] and incubated at 65° C. for 45 min. Alkylation reaction was performed with addition of iodoacetamide (IAA, Sigma, A3221) to a final concentration of 10 mM IAA for 15 min at room temperature in the dark. Following denaturation, reduction and alkylation steps, ten percent of each of the nine parallel protein samples was removed and combined to serve as a pooled reference. Isobaric tags were added to free amine groups using the TMT10plex Isobaric Mass Tagging Kit (ThermoFisher, 90113) with TMT channels randomly assigned to the nine samples and TMT 131 assigned to the pooled reference. […]

Substance | logFC.mEQ.over.Luc
ACTB_21 (FAGDDAPR; listed as Homo sapiens) | −0.08
ACTB_105 (LTEAPLNPKANR; listed as Homo sapiens) | −0.12
ADAM9_69 (VIQAEGKEHIIHLER; listed as Homo sapiens) | −0.10
AEBP1_37 (FLEGFLSELEPEPR; listed as Homo sapiens) | −0.18
APLP2_579 (ISETPVDVR; listed as Homo sapiens) | 0.27
CCDC80_66 (LEEPNLQPLQR; listed as Homo sapiens) | 0.14
ECM1_134 (FGDQSHPEPESWNAAQHCQQDR; listed as Homo sapiens) | 0.28
EFEMP1_124 (AVAGPEMQTGR; listed as Homo sapiens) | −0.59
EFEMP1_125 (VAGPEMQTGR; listed as Homo sapiens) | −0.33
EFHD2_67 (QGIGEPQSPSR; listed as Homo sapiens) | −0.09
EHBP1L1_298 (TAPTPAPR; listed as Homo sapiens) | −0.22
FBLN2_259 (ALGPPAPVQAKAR; listed as Homo sapiens) | −0.01
FBLN2_260 (LGPPAPVQAKAR; listed as Homo sapiens) | −0.74
FBN1_29 (LEAGNVKETR; listed as Homo sapiens) | 0.21
FBN1_53 (LKGPNVCGSR; listed as Homo sapiens) | −0.04
FLNA_612 (SVEGPSQAKIECDDKGDGSCDVR; listed as Homo sapiens) | 0.19
FLNA_695 (FTVDAKHGGKAPLR; listed as Homo sapiens) | −0.25
FLNA_1285 (LTQTGGPHVKAR; listed as Homo sapiens) | −0.11
FN1_36 (MVQPQSPVAVSQSKPGCYDNGKHYQINQQWER; listed as Homo sapiens) | 0.39
FN1_40 (QSPVAVSQSKPGCYDNGKHYQINQQWER; listed as Homo sapiens) | −0.40
FN1_45 (VSQSKPGCYDNGKHYQINQQWER; listed as Homo sapiens) | 0.49
FN1_47 ([code q]SKPGCYD[code n]GKHYQINQQWER; not fully specified; listed as Homo sapiens) | 0.19
FN1_281 (SGSGPFTDVR; listed as Homo sapiens) | 0.56
FN1_282 (GSGPFTDVR; listed as Homo sapiens) | −0.15

Substance | logFC.mEQ.over.Luc
FN1_886 (NQESTPVVIQQETTGTPR; listed as Homo sapiens) | 0.49
FN1_1143 (LTPGVEYVYTIQVLR; listed as Homo sapiens) | 0.00
FN1_1656 (SSSPVTGYR; listed as Homo sapiens) | −0.08
FN1_1731 (FTDVDVDSIKIAWESPQGQVSR; listed as Homo sapiens) | −0.11
FN1_2143 (FEEHGFR; listed as Homo sapiens) | −0.13
FN1_2217 (FQDTSEYIISCHPVGTDEEPLQFR; listed as Homo sapiens) | 0.14
GALNT2_31 (LAGGAGGGAGR; listed as Homo sapiens) | −0.43
GSN_35 (SQAGAPQGR; listed as Homo sapiens) | 0.05
GSN_413 (HIANVER; listed as Homo sapiens) | −0.20
HEG1_49 (GAGLELQLER; listed as Homo sapiens) | 0.51
HLA−C_52 (VDDTQFVR; listed as Homo sapiens) | 0.35
HSPG2_275 (LLPGSVR; listed as Homo sapiens) | 0.38
HSPG2_1937 (SSAGQQVAR; listed as Homo sapiens) | −0.15
HSPG2_2331 (ANLAYPAGSTQPIR; listed as Homo sapiens) | 0.03
HSPG2_2333 (LAYPAGSTQPIR; listed as Homo sapiens) | 0.01
HSPG2_2688 (VADSGEYVCR; listed as Homo sapiens) | 0.14
HSPG2_3250 (SPLPWQHR; listed as Homo sapiens) | 0.00
HSPG2_3542 (IAHVELADAGQYR; listed as Homo sapiens) | −0.07
HSPG2_3647 ([pGlu]GKVKAFAHLQVPER; listed as Homo sapiens) | −0.26
HSPG2_3672 (SFLPLPTIKDAYR; listed as Homo sapiens) | 0.06
HSPG2_3813 (SSGFIGCVR; listed as Homo sapiens) | −0.28
HSPG2_4004 (SAEPLALGR; listed as Homo sapiens) | −0.37
HSPG2_4021 (LNKDGSLR; listed as Homo sapiens) | −0.02
HSPG2_4075 (GCVGEVSVNGKR; listed as Homo sapiens) | 0.02
